The series concerns the molecule itself. As to the kind of experiment: SEC; 10/300 Superdex 200, 50 mM HEPES pH 7.0, KCl 0.2 to 3.0 M (and equivalent NaCl); protein incubated 4 hours in the buffer before loading; 0.5 ml/min; calibrated with molecular weight standards. On the technique in general: Size exclusion chromatography separates by hydrodynamic size, large species first.

What is called stoichiometry N is a count of units in the complex or per binding partner.

B1: Haloferax volcanii proliferating cell nuclear antigen (natural protein)
chain: MFKAIVSAATLRDALDSVSVLVDECKIRLNEESLSIRAVDPANVGMVDLTLDAAAFESYEAHGGVIGVNLSRLEEVAGMAGAGDLIHLTLDEETRKLNIRIDGLSYTLALIDPDSIRQEPDIPDLDLAANIVLEGTHLDRGIKAADMVSDHIRLRVDGAEETFHIEAEGDTDDVDLSLPPADLISIEAGAADSLFSLDYLKDMNKAIPTDAEVTVELGEEFPVKLHYQIAEGMGTITYMLAPRIQSD
notes: Homotrimer; No tag is mentioned; In the model the N-terminal methionine is missing and the C-terminus is not modelled from residue 244; also called HvPCNA; H. volcanii PCNA; source: E. coli B834 (DE3), purified (ammonium sulphate precipitation, Superdex 200, Q-sepharose FF)
On to B1, for which the “stoichiometry N” value came to 3.
